From the supplement of paper PMC9112550, “Optimization of the antimicrobial peptide Bac7 by deep mutational scanning” (BMC Biology, 2022)

Tested on: Escherichia coli TOP10
Experiment: shrunken log2 fold change of peptide-encoding DNA abundance (4.5 h post-induction vs induction); higher = less antimicrobial activity (less host growth inhibition)
Conditions: time post-induction: 4.5 h; library: site-saturation at positions 5, 18, 19, 20
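Also: peptides expressed intracellularly from a pBAD plasmid library in pooled LB shake-flask culture, induced with 0.3% L-arabinose, DNA abundance read by NGS, three biological replicates, DESeq2 with apeglm shrinkage.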

| Sequence | shrunken log2 fold change |
| --- | --- |
| RRIRWRPPRLPRPRPRPYVSPRP | -0.0404 |
| RRIRWRPPRLPRPRPRPYWPPRP | -0.022 |
| RRIRWRPPRLPRPRPRPYWTPRP | -0.175 |
| RRIRYRPPRLPRPRPRPAAGPRP | -0.197 |
| RRIRYRPPRLPRPRPRPAAVPRP | 0.0751 |
| RRIRYRPPRLPRPRPRPAFRPRP | -0.287 |
| RRIRYRPPRLPRPRPRPAHVPRP | -0.144 |
| RRIRYRPPRLPRPRPRPAIEPRP | 0.0193 |
| RRIRYRPPRLPRPRPRPAIIPRP | -0.244 |
| RRIRYRPPRLPRPRPRPAKAPRP | 0.0797 |
| RRIRYRPPRLPRPRPRPAKYPRP | -0.142 |
| RRIRYRPPRLPRPRPRPAMCPRP | 0.00292 |
| RRIRYRPPRLPRPRPRPAMIPRP | -0.229 |
| RRIRYRPPRLPRPRPRPAMMPRP | 0.0997 |
| RRIRYRPPRLPRPRPRPAMPPRP | -0.549 |
| RRIRYRPPRLPRPRPRPANKPRP | -0.278 |
| RRIRYRPPRLPRPRPRPAQYPRP | -0.562 |
| RRIRYRPPRLPRPRPRPARNPRP | -0.0503 |
| RRIRYRPPRLPRPRPRPASSPRP | -0.0244 |
| RRIRYRPPRLPRPRPRPAVEPRP | 0.161 |
| RRIRYRPPRLPRPRPRPAWNPRP | -0.374 |
| RRIRYRPPRLPRPRPRPAYMPRP | -0.396 |
| RRIRYRPPRLPRPRPRPAYYPRP | -0.318 |
| RRIRYRPPRLPRPRPRPCATPRP | 0.0757 |
| RRIRYRPPRLPRPRPRPCCMPRP | -0.356 |

| Sequence | shrunken log2 fold change |
| --- | --- |
| RRIRYRPPRLPRPRPRPCCTPRP | -0.418 |
| RRIRYRPPRLPRPRPRPCDFPRP | -0.227 |
| RRIRYRPPRLPRPRPRPCDMPRP | -0.01 |
| RRIRYRPPRLPRPRPRPCECPRP | -0.0717 |
| RRIRYRPPRLPRPRPRPCFEPRP | -0.614 |
| RRIRYRPPRLPRPRPRPCGEPRP | -0.0504 |
| RRIRYRPPRLPRPRPRPCGQPRP | -0.0335 |
| RRIRYRPPRLPRPRPRPCIPPRP | -0.11 |
| RRIRYRPPRLPRPRPRPCLAPRP | -0.838 |
| RRIRYRPPRLPRPRPRPCMEPRP | -0.0771 |
| RRIRYRPPRLPRPRPRPCMIPRP | -0.731 |
| RRIRYRPPRLPRPRPRPCMTPRP | -0.34 |
| RRIRYRPPRLPRPRPRPCNYPRP | -0.87 |
| RRIRYRPPRLPRPRPRPCRAPRP | -0.459 |
| RRIRYRPPRLPRPRPRPCRIPRP | -0.0823 |
| RRIRYRPPRLPRPRPRPCRVPRP | 0.00293 |
| RRIRYRPPRLPRPRPRPCYKPRP | -0.0156 |
| RRIRYRPPRLPRPRPRPDAIPRP | -0.224 |
| RRIRYRPPRLPRPRPRPDANPRP | -0.114 |
| RRIRYRPPRLPRPRPRPDAPPRP | -0.0708 |
| RRIRYRPPRLPRPRPRPDEWPRP | 0.0549 |
| RRIRYRPPRLPRPRPRPDGCPRP | -0.029 |
| RRIRYRPPRLPRPRPRPDGPPRP | 0.123 |
| RRIRYRPPRLPRPRPRPDHNPRP | -0.217 |
| RRIRYRPPRLPRPRPRPDKSPRP | -1.15 |

| Sequence | shrunken log2 fold change |
| --- | --- |
| RRIRYRPPRLPRPRPRPDLEPRP | -0.0757 |
| RRIRYRPPRLPRPRPRPDLYPRP | -0.0604 |
| RRIRYRPPRLPRPRPRPDMFPRP | -0.0113 |
| RRIRYRPPRLPRPRPRPDMNPRP | 0.00911 |
| RRIRYRPPRLPRPRPRPDNNPRP | -0.189 |
| RRIRYRPPRLPRPRPRPDNVPRP | -0.0165 |
| RRIRYRPPRLPRPRPRPDPAPRP | -0.164 |
| RRIRYRPPRLPRPRPRPDPWPRP | -0.26 |
| RRIRYRPPRLPRPRPRPDQFPRP | -0.435 |
| RRIRYRPPRLPRPRPRPDQWPRP | -0.103 |
| RRIRYRPPRLPRPRPRPDQYPRP | -0.292 |
| RRIRYRPPRLPRPRPRPDRTPRP | -0.0309 |
| RRIRYRPPRLPRPRPRPDRWPRP | -0.118 |
| RRIRYRPPRLPRPRPRPDSHPRP | -0.782 |
| RRIRYRPPRLPRPRPRPDSTPRP | -0.112 |
| RRIRYRPPRLPRPRPRPDTPPRP | 0.0497 |
| RRIRYRPPRLPRPRPRPDTYPRP | -0.145 |
| RRIRYRPPRLPRPRPRPDVVPRP | 0.0135 |
| RRIRYRPPRLPRPRPRPDWVPRP | -0.252 |
| RRIRYRPPRLPRPRPRPEAGPRP | -0.0468 |
| RRIRYRPPRLPRPRPRPEARPRP | 0.105 |
| RRIRYRPPRLPRPRPRPEASPRP | -0.0105 |
| RRIRYRPPRLPRPRPRPECMPRP | -0.417 |
| RRIRYRPPRLPRPRPRPEDYPRP | -0.00116 |
| RRIRYRPPRLPRPRPRPEEPPRP | 0.115 |

| Sequence | shrunken log2 fold change |
| --- | --- |
| RRIRYRPPRLPRPRPRPEEYPRP | -0.255 |
| RRIRYRPPRLPRPRPRPEFLPRP | -0.252 |
| RRIRYRPPRLPRPRPRPEGAPRP | 0.295 |
| RRIRYRPPRLPRPRPRPEITPRP | -0.295 |
| RRIRYRPPRLPRPRPRPEKHPRP | -0.322 |
| RRIRYRPPRLPRPRPRPEKPPRP | -0.00145 |
| RRIRYRPPRLPRPRPRPENFPRP | 0.00911 |
| RRIRYRPPRLPRPRPRPENNPRP | -0.572 |
| RRIRYRPPRLPRPRPRPEPDPRP | 0.0689 |
| RRIRYRPPRLPRPRPRPEPLPRP | 0.0319 |
| RRIRYRPPRLPRPRPRPEPPPRP | 0.49 |
| RRIRYRPPRLPRPRPRPEPTPRP | 0.0581 |
| RRIRYRPPRLPRPRPRPEPYPRP | -0.288 |
| RRIRYRPPRLPRPRPRPEREPRP | -0.0221 |
| RRIRYRPPRLPRPRPRPESCPRP | 0.0195 |
| RRIRYRPPRLPRPRPRPESPPRP | -0.0215 |
| RRIRYRPPRLPRPRPRPEVAPRP | -0.0541 |
| RRIRYRPPRLPRPRPRPEVSPRP | -0.117 |
| RRIRYRPPRLPRPRPRPEVVPRP | -0.219 |
| RRIRYRPPRLPRPRPRPFAEPRP | -0.509 |
| RRIRYRPPRLPRPRPRPFCHPRP | -0.239 |
| RRIRYRPPRLPRPRPRPFCPPRP | -0.878 |
| RRIRYRPPRLPRPRPRPFCQPRP | 0.0155 |
| RRIRYRPPRLPRPRPRPFDIPRP | 0.0167 |
| RRIRYRPPRLPRPRPRPFDYPRP | -0.184 |

| Sequence | shrunken log2 fold change |
| --- | --- |
| RRIRYRPPRLPRPRPRPFEQPRP | -0.382 |
| RRIRYRPPRLPRPRPRPFETPRP | 0.111 |
| RRIRYRPPRLPRPRPRPFFCPRP | -0.644 |
| RRIRYRPPRLPRPRPRPFFLPRP | -0.763 |
| RRIRYRPPRLPRPRPRPFFNPRP | -0.811 |
| RRIRYRPPRLPRPRPRPFFPPRP | -0.682 |
| RRIRYRPPRLPRPRPRPFFRPRP | -0.019 |
| RRIRYRPPRLPRPRPRPFFVPRP | -0.689 |
| RRIRYRPPRLPRPRPRPFHVPRP | -0.184 |
| RRIRYRPPRLPRPRPRPFIRPRP | -0.942 |
| RRIRYRPPRLPRPRPRPFKAPRP | -0.55 |
| RRIRYRPPRLPRPRPRPFLGPRP | -0.0439 |
| RRIRYRPPRLPRPRPRPFNYPRP | 0.0209 |
| RRIRYRPPRLPRPRPRPFQTPRP | -0.0251 |
| RRIRYRPPRLPRPRPRPFRIPRP | -0.535 |
| RRIRYRPPRLPRPRPRPFRNPRP | -0.462 |
| RRIRYRPPRLPRPRPRPFRQPRP | 0.0775 |
| RRIRYRPPRLPRPRPRPFSNPRP | 0.0549 |
| RRIRYRPPRLPRPRPRPFTYPRP | -0.529 |
| RRIRYRPPRLPRPRPRPFVNPRP | 0.017 |
| RRIRYRPPRLPRPRPRPGALPRP | 0.137 |
| RRIRYRPPRLPRPRPRPGAMPRP | 0.986 |
| RRIRYRPPRLPRPRPRPGDCPRP | -0.189 |
| RRIRYRPPRLPRPRPRPGEMPRP | -0.0218 |
| RRIRYRPPRLPRPRPRPGFIPRP | 2.02 |

| Sequence | shrunken log2 fold change |
| --- | --- |
| RRIRYRPPRLPRPRPRPGHKPRP | -0.485 |
| RRIRYRPPRLPRPRPRPGHRPRP | 0.0683 |
| RRIRYRPPRLPRPRPRPGKRPRP | -0.0167 |
| RRIRYRPPRLPRPRPRPGLIPRP | -0.0546 |
| RRIRYRPPRLPRPRPRPGLVPRP | -0.217 |
| RRIRYRPPRLPRPRPRPGNDPRP | -0.356 |
| RRIRYRPPRLPRPRPRPGPEPRP | 0.0444 |
| RRIRYRPPRLPRPRPRPGPFPRP | -0.189 |
| RRIRYRPPRLPRPRPRPGPGPRP | 0.304 |
| RRIRYRPPRLPRPRPRPGPTPRP | -0.0479 |
| RRIRYRPPRLPRPRPRPGQQPRP | 0.0541 |
| RRIRYRPPRLPRPRPRPGRRPRP | 2.15 |
| RRIRYRPPRLPRPRPRPGSDPRP | -0.898 |
| RRIRYRPPRLPRPRPRPGSFPRP | -0.0331 |
| RRIRYRPPRLPRPRPRPGTCPRP | -0.729 |
| RRIRYRPPRLPRPRPRPGTVPRP | 0.0427 |
| RRIRYRPPRLPRPRPRPGVQPRP | 0.0651 |
| RRIRYRPPRLPRPRPRPGVWPRP | 0.171 |
| RRIRYRPPRLPRPRPRPGYQPRP | -0.241 |
| RRIRYRPPRLPRPRPRPHAMPRP | -0.221 |
| RRIRYRPPRLPRPRPRPHCNPRP | -0.366 |
| RRIRYRPPRLPRPRPRPHDDPRP | 0.0514 |
| RRIRYRPPRLPRPRPRPHDGPRP | 0.015 |
| RRIRYRPPRLPRPRPRPHDWPRP | -0.0744 |
| RRIRYRPPRLPRPRPRPHEMPRP | 2.66 |
